Laboratory results from the Human Domainome abundance scans (Beltran et al. 2025).
± gives the uncertainty stated by the source.

B1: GA-binding protein alpha chain, residues 172 to 250; numbered along this chain, Q06546 (parent)
chain: GYRKEQERLGIPYDPIQWSTDQVLHWVVWVMKEFSMTDIDLTTLNISGRELCSLNQEDFFQRVPRGEILWSHLELLRKY

Variants of: B1
Experiment: abundance fitness (aPCA) (normalised: wild type 0, dead -1); higher = more abundant; growth selection in yeast, the domain comes from the species named
Conditions: Homo sapiens

Variant	abundance fitness
GYRKEQERLGIIYDPIQWSTDQVLHWVVWVMKEFSMTDIDLTTLNISGRELCSLNQEDFFQRVPRGEILWSHLELLRKY [P12I]	-0.912 ± 0.33
GYRKEQERLGIKYDPIQWSTDQVLHWVVWVMKEFSMTDIDLTTLNISGRELCSLNQEDFFQRVPRGEILWSHLELLRKY [P12K]	-0.762 ± 0.19
GYRKEQERLGILYDPIQWSTDQVLHWVVWVMKEFSMTDIDLTTLNISGRELCSLNQEDFFQRVPRGEILWSHLELLRKY [P12L]	-0.955 ± 0.085
GYRKEQERLGIMYDPIQWSTDQVLHWVVWVMKEFSMTDIDLTTLNISGRELCSLNQEDFFQRVPRGEILWSHLELLRKY [P12M]	-0.903 ± 0.12
GYRKEQERLGINYDPIQWSTDQVLHWVVWVMKEFSMTDIDLTTLNISGRELCSLNQEDFFQRVPRGEILWSHLELLRKY [P12N]	-0.542 ± 0.2
GYRKEQERLGIRYDPIQWSTDQVLHWVVWVMKEFSMTDIDLTTLNISGRELCSLNQEDFFQRVPRGEILWSHLELLRKY [P12R]	-0.969 ± 0.078
GYRKEQERLGISYDPIQWSTDQVLHWVVWVMKEFSMTDIDLTTLNISGRELCSLNQEDFFQRVPRGEILWSHLELLRKY [P12S]	-0.229 ± 0.036
GYRKEQERLGITYDPIQWSTDQVLHWVVWVMKEFSMTDIDLTTLNISGRELCSLNQEDFFQRVPRGEILWSHLELLRKY [P12T]	-0.56 ± 0.077
GYRKEQERLGIVYDPIQWSTDQVLHWVVWVMKEFSMTDIDLTTLNISGRELCSLNQEDFFQRVPRGEILWSHLELLRKY [P12V]	-0.724 ± 0.035
GYRKEQERLGIWYDPIQWSTDQVLHWVVWVMKEFSMTDIDLTTLNISGRELCSLNQEDFFQRVPRGEILWSHLELLRKY [P12W]	-0.98 ± 0.14
GYRKEQERLGIYYDPIQWSTDQVLHWVVWVMKEFSMTDIDLTTLNISGRELCSLNQEDFFQRVPRGEILWSHLELLRKY [P12Y]	-0.707 ± 0.16
GYRKEQERLGIPADPIQWSTDQVLHWVVWVMKEFSMTDIDLTTLNISGRELCSLNQEDFFQRVPRGEILWSHLELLRKY [Y13A]	-0.085 ± 0.039
GYRKEQERLGIPCDPIQWSTDQVLHWVVWVMKEFSMTDIDLTTLNISGRELCSLNQEDFFQRVPRGEILWSHLELLRKY [Y13C]	-0.138 ± 0.076
GYRKEQERLGIPDDPIQWSTDQVLHWVVWVMKEFSMTDIDLTTLNISGRELCSLNQEDFFQRVPRGEILWSHLELLRKY [Y13D]	-0.064 ± 0.052
GYRKEQERLGIPEDPIQWSTDQVLHWVVWVMKEFSMTDIDLTTLNISGRELCSLNQEDFFQRVPRGEILWSHLELLRKY [Y13E]	0 ± 0.048
GYRKEQERLGIPFDPIQWSTDQVLHWVVWVMKEFSMTDIDLTTLNISGRELCSLNQEDFFQRVPRGEILWSHLELLRKY [Y13F]	0.014 ± 0.03
GYRKEQERLGIPGDPIQWSTDQVLHWVVWVMKEFSMTDIDLTTLNISGRELCSLNQEDFFQRVPRGEILWSHLELLRKY [Y13G]	-0.119 ± 0.028
GYRKEQERLGIPHDPIQWSTDQVLHWVVWVMKEFSMTDIDLTTLNISGRELCSLNQEDFFQRVPRGEILWSHLELLRKY [Y13H]	-0.114 ± 0.088
GYRKEQERLGIPIDPIQWSTDQVLHWVVWVMKEFSMTDIDLTTLNISGRELCSLNQEDFFQRVPRGEILWSHLELLRKY [Y13I]	-0.022 ± 0.074
GYRKEQERLGIPKDPIQWSTDQVLHWVVWVMKEFSMTDIDLTTLNISGRELCSLNQEDFFQRVPRGEILWSHLELLRKY [Y13K]	-0.024 ± 0.063
GYRKEQERLGIPLDPIQWSTDQVLHWVVWVMKEFSMTDIDLTTLNISGRELCSLNQEDFFQRVPRGEILWSHLELLRKY [Y13L]	-0.014 ± 0.036
GYRKEQERLGIPMDPIQWSTDQVLHWVVWVMKEFSMTDIDLTTLNISGRELCSLNQEDFFQRVPRGEILWSHLELLRKY [Y13M]	0.012 ± 0.062
GYRKEQERLGIPNDPIQWSTDQVLHWVVWVMKEFSMTDIDLTTLNISGRELCSLNQEDFFQRVPRGEILWSHLELLRKY [Y13N]	0.006 ± 0.11

Variant	abundance fitness
GYRKEQERLGIPPDPIQWSTDQVLHWVVWVMKEFSMTDIDLTTLNISGRELCSLNQEDFFQRVPRGEILWSHLELLRKY [Y13P]	-0.058 ± 0.049
GYRKEQERLGIPQDPIQWSTDQVLHWVVWVMKEFSMTDIDLTTLNISGRELCSLNQEDFFQRVPRGEILWSHLELLRKY [Y13Q]	-0.048 ± 0.06
GYRKEQERLGIPSDPIQWSTDQVLHWVVWVMKEFSMTDIDLTTLNISGRELCSLNQEDFFQRVPRGEILWSHLELLRKY [Y13S]	-0.029 ± 0.039
GYRKEQERLGIPTDPIQWSTDQVLHWVVWVMKEFSMTDIDLTTLNISGRELCSLNQEDFFQRVPRGEILWSHLELLRKY [Y13T]	-0.152 ± 0.087
GYRKEQERLGIPVDPIQWSTDQVLHWVVWVMKEFSMTDIDLTTLNISGRELCSLNQEDFFQRVPRGEILWSHLELLRKY [Y13V]	-0.109 ± 0.032
GYRKEQERLGIPYAPIQWSTDQVLHWVVWVMKEFSMTDIDLTTLNISGRELCSLNQEDFFQRVPRGEILWSHLELLRKY [D14A]	-0.369 ± 0.043
GYRKEQERLGIPYCPIQWSTDQVLHWVVWVMKEFSMTDIDLTTLNISGRELCSLNQEDFFQRVPRGEILWSHLELLRKY [D14C]	-0.393 ± 0.048
GYRKEQERLGIPYEPIQWSTDQVLHWVVWVMKEFSMTDIDLTTLNISGRELCSLNQEDFFQRVPRGEILWSHLELLRKY [D14E]	-0.15 ± 0.049
GYRKEQERLGIPYFPIQWSTDQVLHWVVWVMKEFSMTDIDLTTLNISGRELCSLNQEDFFQRVPRGEILWSHLELLRKY [D14F]	-1.01 ± 0.18
GYRKEQERLGIPYGPIQWSTDQVLHWVVWVMKEFSMTDIDLTTLNISGRELCSLNQEDFFQRVPRGEILWSHLELLRKY [D14G]	-0.805 ± 0.049
GYRKEQERLGIPYHPIQWSTDQVLHWVVWVMKEFSMTDIDLTTLNISGRELCSLNQEDFFQRVPRGEILWSHLELLRKY [D14H]	-0.147 ± 0.078
GYRKEQERLGIPYIPIQWSTDQVLHWVVWVMKEFSMTDIDLTTLNISGRELCSLNQEDFFQRVPRGEILWSHLELLRKY [D14I]	-0.94 ± 0.15
GYRKEQERLGIPYKPIQWSTDQVLHWVVWVMKEFSMTDIDLTTLNISGRELCSLNQEDFFQRVPRGEILWSHLELLRKY [D14K]	-0.793 ± 0.23
GYRKEQERLGIPYLPIQWSTDQVLHWVVWVMKEFSMTDIDLTTLNISGRELCSLNQEDFFQRVPRGEILWSHLELLRKY [D14L]	-0.766 ± 0.061
GYRKEQERLGIPYMPIQWSTDQVLHWVVWVMKEFSMTDIDLTTLNISGRELCSLNQEDFFQRVPRGEILWSHLELLRKY [D14M]	-0.784 ± 0.081
GYRKEQERLGIPYNPIQWSTDQVLHWVVWVMKEFSMTDIDLTTLNISGRELCSLNQEDFFQRVPRGEILWSHLELLRKY [D14N]	-0.072 ± 0.06
GYRKEQERLGIPYPPIQWSTDQVLHWVVWVMKEFSMTDIDLTTLNISGRELCSLNQEDFFQRVPRGEILWSHLELLRKY [D14P]	-0.596 ± 0.066
GYRKEQERLGIPYQPIQWSTDQVLHWVVWVMKEFSMTDIDLTTLNISGRELCSLNQEDFFQRVPRGEILWSHLELLRKY [D14Q]	-0.344 ± 0.08
GYRKEQERLGIPYRPIQWSTDQVLHWVVWVMKEFSMTDIDLTTLNISGRELCSLNQEDFFQRVPRGEILWSHLELLRKY [D14R]	-0.954 ± 0.064
GYRKEQERLGIPYSPIQWSTDQVLHWVVWVMKEFSMTDIDLTTLNISGRELCSLNQEDFFQRVPRGEILWSHLELLRKY [D14S]	-0.205 ± 0.036
GYRKEQERLGIPYTPIQWSTDQVLHWVVWVMKEFSMTDIDLTTLNISGRELCSLNQEDFFQRVPRGEILWSHLELLRKY [D14T]	-0.868 ± 0.24
GYRKEQERLGIPYVPIQWSTDQVLHWVVWVMKEFSMTDIDLTTLNISGRELCSLNQEDFFQRVPRGEILWSHLELLRKY [D14V]	-0.856 ± 0.071
GYRKEQERLGIPYWPIQWSTDQVLHWVVWVMKEFSMTDIDLTTLNISGRELCSLNQEDFFQRVPRGEILWSHLELLRKY [D14W]	-0.651 ± 0.055

Variant	abundance fitness
GYRKEQERLGIPYYPIQWSTDQVLHWVVWVMKEFSMTDIDLTTLNISGRELCSLNQEDFFQRVPRGEILWSHLELLRKY [D14Y]	-0.57 ± 0.11
GYRKEQERLGIPYDAIQWSTDQVLHWVVWVMKEFSMTDIDLTTLNISGRELCSLNQEDFFQRVPRGEILWSHLELLRKY [P15A]	-0.641 ± 0.067
GYRKEQERLGIPYDCIQWSTDQVLHWVVWVMKEFSMTDIDLTTLNISGRELCSLNQEDFFQRVPRGEILWSHLELLRKY [P15C]	-0.742 ± 0.08
GYRKEQERLGIPYDEIQWSTDQVLHWVVWVMKEFSMTDIDLTTLNISGRELCSLNQEDFFQRVPRGEILWSHLELLRKY [P15E]	-1 ± 0.15
GYRKEQERLGIPYDFIQWSTDQVLHWVVWVMKEFSMTDIDLTTLNISGRELCSLNQEDFFQRVPRGEILWSHLELLRKY [P15F]	-0.717 ± 0.094
GYRKEQERLGIPYDGIQWSTDQVLHWVVWVMKEFSMTDIDLTTLNISGRELCSLNQEDFFQRVPRGEILWSHLELLRKY [P15G]	-0.888 ± 0.073
GYRKEQERLGIPYDHIQWSTDQVLHWVVWVMKEFSMTDIDLTTLNISGRELCSLNQEDFFQRVPRGEILWSHLELLRKY [P15H]	-0.813 ± 0.23
GYRKEQERLGIPYDIIQWSTDQVLHWVVWVMKEFSMTDIDLTTLNISGRELCSLNQEDFFQRVPRGEILWSHLELLRKY [P15I]	-0.356 ± 0.066
GYRKEQERLGIPYDLIQWSTDQVLHWVVWVMKEFSMTDIDLTTLNISGRELCSLNQEDFFQRVPRGEILWSHLELLRKY [P15L]	-0.72 ± 0.058
GYRKEQERLGIPYDMIQWSTDQVLHWVVWVMKEFSMTDIDLTTLNISGRELCSLNQEDFFQRVPRGEILWSHLELLRKY [P15M]	-0.635 ± 0.11
GYRKEQERLGIPYDNIQWSTDQVLHWVVWVMKEFSMTDIDLTTLNISGRELCSLNQEDFFQRVPRGEILWSHLELLRKY [P15N]	-0.606 ± 0.11
GYRKEQERLGIPYDQIQWSTDQVLHWVVWVMKEFSMTDIDLTTLNISGRELCSLNQEDFFQRVPRGEILWSHLELLRKY [P15Q]	-0.878 ± 0.19
GYRKEQERLGIPYDRIQWSTDQVLHWVVWVMKEFSMTDIDLTTLNISGRELCSLNQEDFFQRVPRGEILWSHLELLRKY [P15R]	-0.56 ± 0.04
GYRKEQERLGIPYDSIQWSTDQVLHWVVWVMKEFSMTDIDLTTLNISGRELCSLNQEDFFQRVPRGEILWSHLELLRKY [P15S]	-0.765 ± 0.066
GYRKEQERLGIPYDTIQWSTDQVLHWVVWVMKEFSMTDIDLTTLNISGRELCSLNQEDFFQRVPRGEILWSHLELLRKY [P15T]	-1.07 ± 0.23
GYRKEQERLGIPYDVIQWSTDQVLHWVVWVMKEFSMTDIDLTTLNISGRELCSLNQEDFFQRVPRGEILWSHLELLRKY [P15V]	-0.243 ± 0.036
GYRKEQERLGIPYDWIQWSTDQVLHWVVWVMKEFSMTDIDLTTLNISGRELCSLNQEDFFQRVPRGEILWSHLELLRKY [P15W]	-1.09 ± 0.15
GYRKEQERLGIPYDYIQWSTDQVLHWVVWVMKEFSMTDIDLTTLNISGRELCSLNQEDFFQRVPRGEILWSHLELLRKY [P15Y]	-0.901 ± 0.28
GYRKEQERLGIPYDPAQWSTDQVLHWVVWVMKEFSMTDIDLTTLNISGRELCSLNQEDFFQRVPRGEILWSHLELLRKY [I16A]	-0.021 ± 0.041
GYRKEQERLGIPYDPCQWSTDQVLHWVVWVMKEFSMTDIDLTTLNISGRELCSLNQEDFFQRVPRGEILWSHLELLRKY [I16C]	0.036 ± 0.054
GYRKEQERLGIPYDPDQWSTDQVLHWVVWVMKEFSMTDIDLTTLNISGRELCSLNQEDFFQRVPRGEILWSHLELLRKY [I16D]	-0.116 ± 0.086
GYRKEQERLGIPYDPEQWSTDQVLHWVVWVMKEFSMTDIDLTTLNISGRELCSLNQEDFFQRVPRGEILWSHLELLRKY [I16E]	0.101 ± 0.079
GYRKEQERLGIPYDPFQWSTDQVLHWVVWVMKEFSMTDIDLTTLNISGRELCSLNQEDFFQRVPRGEILWSHLELLRKY [I16F]	-0.027 ± 0.064
